Each block holds one binder with its values, some of them ahead of it.
Assays:
FcγRIIIa, V158 isoform [1] = target: T1, FcγRIIIa, V158 isoform (human, UniProt P08637 17-208, limits assumed); experiment: SPR (Biacore), 9518 captured (protein A by the text, HM1.24 by the legend of FIG. 16), receptor concentration series, 1:1 Langmuir global fit
T1 construct: no change against a named entry is printed; also called FcγRIIIa(158V); V158 FcγRIIIa
Experimental: (§1) Binding measurements were performed using a Biacore® 3000 instrument (Biacore®). Antibodies were captured onto an immobilized Protein A (Pierce) CM5 biosensor chip (Biacore®), generated using a standard primary amine coupling protocol. All measurements were performed in HBS-EP (0.01 M HEPES pH 7.4, 0.15 M NaCl, 3 mM EDTA, 0.005% v/v surfactant P20), and glycine buffer (10 mM glycine-HCl, pH 1.5) was used for the Protein A surface regeneration. All antibodies (50 nM in HBS-EP) were immobilized on the Protein A surface. Fc receptors were injected over antibody bound surface, followed by a dissociation phase. After each cycle, the Protein A surface was regenerated by injecting glycine buffer (pH 1.5). Data were processed by zeroing time and response before the injection of receptor and by subtracting appropriate nonspecific signals (response of reference channel and injection of running buffer).
Data were processed by zeroing time and response before the injection of receptor and by subtracting appropriate nonspecific signals. The equilibrium constant was calculated by global fitting of binding data with a 1:1 Langmuir binding model using BIAevaluation software.

[2] = target: T2, HM1.24 antigen on a Biacore chip (UniProt Q10589 49-161, limits assumed); experiment: SPR (Biacore), 100 nM mAb-Fv injected over a HM1.24 chip
T2 construct: also called HM1.24 chip
T2 sequence (looked up): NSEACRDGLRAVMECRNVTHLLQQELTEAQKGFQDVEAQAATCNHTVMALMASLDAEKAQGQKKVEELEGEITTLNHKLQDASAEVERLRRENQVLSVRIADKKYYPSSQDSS

FcγRIIIa, V158 isoform [3] = target: T1, FcγRIIIa, V158 isoform; experiment: SPR (Biacore); the reference value of native IgG1 (280 nM) is cited from the literature
Experimental: Affinity of the mAb-Fv for FcγRIIIa was measured using Biacore®. The protein A capture format was used as described above, except that sensorgrams were obtained for a concentration series of receptor analyte in order to calculate an accurate affinity. […] Data were processed by zeroing time and response before the injection of receptor and by subtracting appropriate nonspecific signals (response of reference channel and injection of running buffer). The equilibrium constant was calculated by global fitting of binding data with a 1:1 Langmuir binding model using BIAevaluation software.
Similar binding experiments were carried out for the αHM1.24×αFcγRIIIa mAb-Fv. […] Data were processed by zeroing time and response before the injection of receptor and by subtracting appropriate nonspecific signals. The equilibrium constant was calculated by global fitting of binding data with a 1:1 Langmuir binding model using BIAevaluation software.

FcγRIIb [4] = target: T3, FcγRIIb (human, UniProt P31994 43-217, limits assumed); experiment: SPR (Biacore), 9547 captured on protein A, receptor concentration series, 1:1 Langmuir global fit
T3 construct: also called CD32b
T3 sequence (looked up): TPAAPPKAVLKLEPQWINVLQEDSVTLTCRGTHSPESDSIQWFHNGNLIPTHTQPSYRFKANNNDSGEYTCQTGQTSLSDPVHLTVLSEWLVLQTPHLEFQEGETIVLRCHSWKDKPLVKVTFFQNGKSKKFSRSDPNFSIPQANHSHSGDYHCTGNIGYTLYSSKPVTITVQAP
Experimental: as §1

FcγRIIb [5] = target: T3, FcγRIIb; experiment: SPR (Biacore); the reference value of native IgG1 (2.3 µM) is cited from the literature

T1 sequence (P08637 17-208 F176V limits assumed): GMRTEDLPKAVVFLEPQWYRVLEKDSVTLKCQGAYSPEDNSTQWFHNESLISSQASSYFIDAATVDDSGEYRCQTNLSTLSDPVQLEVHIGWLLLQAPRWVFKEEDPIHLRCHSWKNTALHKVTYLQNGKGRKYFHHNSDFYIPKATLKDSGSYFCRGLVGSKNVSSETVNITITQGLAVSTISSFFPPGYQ

Kd (FcγRIIIa, V158 isoform [1]): 0.096 µM
binding result [2]: binds
fold tighter than native IgG1 (FcγRIIIa, V158 isoform [3]): ~2.9 fold
B1: 9518 αHM1.24×αFcγRIIIa mAb-Fv (bispecific antibody, IgG1)
heavy 1: QVQLVQSGAEVKKPGASVKVSCKASGYTFTPYWMQWVRQAPGQGLEWMGSIFPGSGDTRYSQSFQGQVTISADKSISTAYMELSRLRSDDTAVYYCARGLRRGGYYFDYWGQGTLVTVSSASTKGPSVFPLAPSSKSTSGGTAALGCLVKDYFPEPVTVSWNSGALTSGVHTFPAVLQSSGLYSLSSVVTVPSSSLGTQTYICNVNHKPSNTKVDKKVEPKSCDKTHTCPPCPAPELLRGPSVFLFPPKPKDTLMISRTPEVTCVVVDVSHEDPEVKFNWYVDGVEVHNAKTKPREEQYNSTYRVVSVLTVLHQDWLNGKEYKCKVSNKARPAPIEKTISKAKGQPREPQVTTLPPSREEMTKNQVSLTCLVKGFYPSDIAVEWESNGQPENNYKTFPPVLDSDGSFFLYSKLTVDKSRWQQGNVFSCSVMHEALHNHYTQKSLSLSPGKSSDKTHTSPPSPGGGGSGGGGSGGGGSGGGGQVTLKESGPGILQPSQTLSLTCSFSGFSLRTSGMGVGWIRQPSGKGLEWLAHIWWDDDKRYNPALKSRLTISKDTSSNQVFLKIASVDTADTATYYCAQINPAWFAYWGQGTLVTVSASGHHHHHH
heavy 2: QVQLVQSGAEVKKPGASVKVSCKASGYTFTPYWMQWVRQAPGQGLEWMGSIFPGSGDTRYSQSFQGQVTISADKSISTAYMELSRLRSDDTAVYYCARGLRRGGYYFDYWGQGTLVTVSSASTKGPSVFPLAPSSKSTSGGTAALGCLVKDYFPEPVTVSWNSGALTSGVHTFPAVLQSSGLYSLSSVVTVPSSSLGTQTYICNVNHKPSNTKVDKKVEPKSCDKTHTCPPCPAPELLRGPSVFLFPPKPKDTLMISRTPEVTCVVVDVSHEDPEVKFNWYVDGVEVHNAKTKPREEQYNSTYRVVSVLTVLHQDWLNGKEYKCKVSNKARPAPIEKTISKAKGQPREPQVYTLPPSREEMTKNQVHLTCLVKGFYPSDIAVEWESNGQPENNYKTTPPVLDSDGSFALYSKLTVDKSRWQQGNVFSCSVMHEALHNHYTQKSLSLSPGKSSDKTHTSPPSPGGGGSGGGGSGGGGSGGGGDIVLTQSPASLAVSLGQRATISCKASQSVDFDGDSFMNWYQQKPGQPPKLLIYTTSNLESGIPARFSASGSGTDFTLNIHPVEEEDTATYYCQQSNEDPYTFGGGTKLELKSGDYKDDDDK
light: DIVMTQSPLSLPVTLGQPASISCKASQDVNTAVAWYLQKPGKSPKLLIYSASNRYTGVPDRITGSGSGTDFTLKISRVEAEDVGVYYCQQHYSTPFTFGSGTKLEIKRTVAAPSVFIFPPSDEQLKSGTASVVCLLNNFYPREAKVQWKVDNALQSGNSQESVTEQDSKDSTYSLSSTLTLSKADYEKHKVYACEVTHQGLSSPVTKSFNRGEC
notes: mAb-Fv, IgG1 G236R/L328R, hetero-Fc TF-HA, Linker 2; copies: 1 + 1 + 2

Kd (FcγRIIb [4]): 0.044 µM
fold tighter than native IgG1 (FcγRIIb [5]): ~52 fold
B2: 9547 αCD19×αFcγRIIb mAb-Fv (bispecific antibody, IgG1)
heavy 1: EVQLVESGGGLVKPGGSLKLSCAASGYTFTSYVMHWVRQAPGKGLEWIGYINPYNDGTKYNEKFQGRVTISSDKSISTAYMELSSLRSEDTAMYYCARGTYYYGTRVFDYWGQGTLVTVSSASTKGPSVFPLAPSSKSTSGGTAALGCLVKDYFPEPVTVSWNSGALTSGVHTFPAVLQSSGLYSLSSVVTVPSSSLGTQTYICNVNHKPSNTKVDKKVEPKSCDKTHTCPPCPAPELLRGPSVFLFPPKPKDTLMISRTPEVTCVVVDVSHEDPEVKFNWYVDGVEVHNAKTKPREEQYNSTYRVVSVLTVLHQDWLNGKEYKCKVSNKARPAPIEKTISKAKGQPREPQVTTLPPSREEMTKNQVSLTCLVKGFYPSDIAVEWESNGQPENNYKTFPPVLDSDGSFFLYSKLTVDKSRWQQGNVFSCSVMHEALHNHYTQKSLSLSPGKGGGGSGGGGSGGGGSGGGGSGGGGSGGGGQVQLQQPVTELVRPGASVMLSCKASDYPFTNYWIHWVKQRPGQGLEWIGVIDPSDTYPNYNKKFKGKATLTVVVSSSTAYMQLSSLTSDDSAVYYCARNGDSDYYSGMDYWGQGTSVTVSSGSHHHHHH
heavy 2: EVQLVESGGGLVKPGGSLKLSCAASGYTFTSYVMHWVRQAPGKGLEWIGYINPYNDGTKYNEKFQGRVTISSDKSISTAYMELSSLRSEDTAMYYCARGTYYYGTRVFDYWGQGTLVTVSSASTKGPSVFPLAPSSKSTSGGTAALGCLVKDYFPEPVTVSWNSGALTSGVHTFPAVLQSSGLYSLSSVVTVPSSSLGTQTYICNVNHKPSNTKVDKKVEPKSCDKTHTCPPCPAPELLRGPSVFLFPPKPKDTLMISRTPEVTCVVVDVSHEDPEVKFNWYVDGVEVHNAKTKPREEQYNSTYRVVSVLTVLHQDWLNGKEYKCKVSNKARPAPIEKTISKAKGQPREPQVYTLPPSREEMTKNQVHLTCLVKGFYPSDIAVEWESNGQPENNYKTTPPVLDSDGSFALYSKLTVDKSRWQQGNVFSCSVMHEALHNHYTQKSLSLSPGKGGGGSGGGGSGGGGSGGGGSGGGGSGGGGDILLTQSPAILSVSPGERVSFSCRTSQSIGTNIHWYQQRTNGFPRLLIKNVSESISGIPSRFSGSGSGTDFILSINSVESEDIADYYCQQSNTWPFTFGGGTKLEIKGSHHHHHH
light: DIVMTQSPATLSLSPGERATLSCRSSKSLQNVNGNTYLYWFQQKPGQSPQLLIYRMSNLNSGVPDRFSGSGSGTEFTLTISSLEPEDFAVYYCMQHLEYPITFGAGTKLEIKRTVAAPSVFIFPPSDEQLKSGTASVVCLLNNFYPREAKVQWKVDNALQSGNSQESVTEQDSKDSTYSLSSTLTLSKADYEKHKVYACEVTHQGLSSPVTKSFNRGEC
notes: mAb-Fv, IgG1 G236R/L328R, hetero-Fc TF-HA, Linker 3; also called 9547 mAb-Fv; copies: 1 + 1 + 2
